From paper PMC5473912, “Regulation of sub-compartmental targeting and folding properties of the Prion-like protein Shadoo” (Scientific Reports, 2017)

Target: T1, Calreticulin (CRT), endogenous mouse (mouse (endogenous in GT1), UniProt P14211 18-416)
T1 construct: Calreticulin (CRT), mouse, immunoprecipitated with anti-CRT antibody; also called ER chaperone Calreticulin; source: endogenous, GT1 lysate
T1 sequence (looked up): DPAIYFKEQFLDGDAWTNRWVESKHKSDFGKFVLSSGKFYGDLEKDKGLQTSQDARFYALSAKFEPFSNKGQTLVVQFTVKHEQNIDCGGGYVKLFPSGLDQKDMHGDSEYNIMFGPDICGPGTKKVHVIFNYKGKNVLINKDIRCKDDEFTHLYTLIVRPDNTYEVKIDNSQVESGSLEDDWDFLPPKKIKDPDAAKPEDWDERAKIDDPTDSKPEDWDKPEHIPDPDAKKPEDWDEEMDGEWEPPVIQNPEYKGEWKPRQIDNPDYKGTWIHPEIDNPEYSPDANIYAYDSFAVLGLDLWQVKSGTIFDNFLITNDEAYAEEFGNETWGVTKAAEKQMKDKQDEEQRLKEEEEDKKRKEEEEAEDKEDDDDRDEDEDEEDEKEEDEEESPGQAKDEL
Assay: co-IP; Calreticulin immunoprecipitated from GT1 lysates (JS buffer, 1% TX-100, 150 mM NaCl, pH 7.5) with anti-CRT Ab and protein A-Sepharose overnight at 4 °C; Sho revealed by Western blot with SPRN-R12; cells under control conditions or cholesterol depletion (βCD 10 mM, 1 h)
Details: partners not purified

B1: Shadoo (Sho), mature fully glycosylated ~22 kDa isoform, endogenous mouse (natural protein, mouse (endogenous in GT1), UniProt Q8BWU1 25-122, looked up)
chain: KGGRGGARGSARGVRGGARGASRVRVRPAPRYGSSLRVAAAGAAAGAAAGVAAGLATGSGWRRTSGPGELGLEDDENGAMGGNGTDRGVYSYWAWTSG
modifications: fully N-glycosylated (complex-glycosylated)
notes: Shadoo (Sho, SPRN), mouse, the mature fully glycosylated isoform that migrates at ~22 kDa; also called mature Sho; mature glycosylated Sho; source: endogenous, GT1 lysate
fold increase in the immunocomplex upon cholesterol depletion against control: ~3 fold
